For one assay, the target named is CD64 (FcgammaRI) (UniProt P12314). The experiment in a line: SPR, single-cycle kinetics, bivalent analyte model.
The next assay deals with CD32a167H (UniProt P12318). The experiment in a line: SPR, BIAcore 8K, antibody captured on anti-Fab chip, steady state affinity fit. Background: In SPR one partner is held on a chip, and binding of the other changes the refractive index at the surface.
The target in a further assay is CD32a167R (UniProt P12318). The description is as above.
Chain of CD32a167R (P12318 36-218 H167R limits assumed): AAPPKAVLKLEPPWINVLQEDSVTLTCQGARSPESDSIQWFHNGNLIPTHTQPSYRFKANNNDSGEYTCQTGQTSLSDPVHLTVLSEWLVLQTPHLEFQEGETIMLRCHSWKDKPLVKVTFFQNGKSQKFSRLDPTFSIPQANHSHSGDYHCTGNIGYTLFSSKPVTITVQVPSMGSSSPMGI
Another assay concerns the target CD32b (FcgammaRIIb) (UniProt P31994). The assay is described as above.
Another assay concerns the target CD16a176F (UniProt P08637). As to the kind of experiment: SPR, BIAcore 8K, antibody captured on anti-Fab chip, single-cycle kinetics, bivalent analyte model.
For another assay, the target named is CD16a176V (UniProt P08637). The description is as above.
Chain of CD16a176V (P08637 17-208 F176V limits assumed): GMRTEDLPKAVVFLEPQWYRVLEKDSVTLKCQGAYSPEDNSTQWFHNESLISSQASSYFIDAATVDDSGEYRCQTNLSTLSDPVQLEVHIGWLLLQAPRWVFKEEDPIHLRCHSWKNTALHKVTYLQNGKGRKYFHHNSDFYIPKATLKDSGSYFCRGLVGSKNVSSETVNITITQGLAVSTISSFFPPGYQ
The target in the next assay is CD16b (FcgammaRIIIb) (UniProt O75015). The description is as above.

Data on two substances can be found in patent US20210221914A1.

Chain of CD16a176F (P08637 17-208 limits assumed): as the sequence (P08637 17-208 F176V limits assumed) above, with V160F counted along it
Chain of CD32b (FcgammaRIIb) (P31994 46-217 limits assumed): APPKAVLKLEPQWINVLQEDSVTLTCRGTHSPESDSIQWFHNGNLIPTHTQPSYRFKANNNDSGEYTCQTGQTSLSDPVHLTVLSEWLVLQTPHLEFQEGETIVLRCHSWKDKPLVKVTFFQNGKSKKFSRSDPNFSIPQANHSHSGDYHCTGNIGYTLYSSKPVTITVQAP
Chain of CD32a167H (P12318 36-218 limits assumed): as the sequence (P12318 36-218 H167R limits assumed) above, with R132H counted along it
Chain of CD64 (FcgammaRI) (P12314 16-288 limits assumed): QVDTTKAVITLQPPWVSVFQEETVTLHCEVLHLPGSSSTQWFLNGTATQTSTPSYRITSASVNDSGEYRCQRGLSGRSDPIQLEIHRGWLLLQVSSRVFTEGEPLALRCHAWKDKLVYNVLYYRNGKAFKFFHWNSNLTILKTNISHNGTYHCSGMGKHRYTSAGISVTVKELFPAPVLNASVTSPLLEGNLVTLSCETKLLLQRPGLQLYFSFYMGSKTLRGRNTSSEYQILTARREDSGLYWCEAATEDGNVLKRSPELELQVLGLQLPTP

A word on the koff: it is the rate constant with which the complex falls apart. Read a high koff as fast dissociation. As usually defined, the kon is the rate constant with which the complex forms. Lower therefore signals slow association. “CD-GLU antibody (human IgG1, m1,17 allotype, CD loop replaced by the Glu epitope YMPMENNY)” yielded a fold increase in off-rate relative to CD-WT with CD64 (FcgammaRI) of 1.2 fold. Moreover, the Kd was found to be 505 nM with CD32a167H; 488 nM with CD32a167R; 1610 nM with CD32b (FcgammaRIIb); 1050 nM with CD16a176F; 334 nM in the assay with CD16a176V; 556 nM with CD16b (FcgammaRIIIb). The koff was 0.189 s⁻¹ in the assay with CD16a176F, 0.146 s⁻¹ with CD16a176V and 0.168 s⁻¹ in the assay with CD16b (FcgammaRIIIb). In addition, the values for the kon with CD16a176F, in the assay with CD16a176V and in the assay with CD16b (FcgammaRIIIb) were 181000 M⁻¹ s⁻¹, 438000 M⁻¹ s⁻¹ and 302000 M⁻¹ s⁻¹, respectively.
For “CD-WT antibody (human IgG1, m1,17 allotype, wild-type CD loop)”, the Kd was found to be 450 nM with CD32a167H; 439 nM with CD32a167R; 1530 nM with CD32b (FcgammaRIIb); 869 nM with CD16a176F; 241 nM with CD16a176V; 426 nM with CD16b (FcgammaRIIIb). In addition, the koff with CD16a176F is 0.185 s⁻¹; in the assay with CD16a176V, 0.181 s⁻¹; in the assay with CD16b (FcgammaRIIIb), 0.166 s⁻¹. In addition, the kon in the assay with CD16a176F stood at 213000 M⁻¹ s⁻¹; in the assay with CD16a176V it was 751000 M⁻¹ s⁻¹; with CD16b (FcgammaRIIIb), 389000 M⁻¹ s⁻¹.
